# Test results as given in IntAct's records for PubMed 29263825.
# B1: Cohesin subunit SA-2 (Homo sapiens), Q8N3U4 (parent)
# chain: MIAAPEIPTDFNLLQESETHFSSDTDFEDIEGKNQKQGKGKTCKKGKKGPAEKGKGGNGGGKPPSGPNRMNGHHQQNGVENMMLFEVVKMGKSAMQSVVDDWIESYKHDRDIALLDLINFFIQCSGCKGVVTAEMFRHMQNSEIIRKMTEEFDEDSGDYPLTMAGPQWKKFKSSFCEFIGVLVRQCQYSIIYDEYMMDTVISLLTGLSDSQVRAFRHTSTLAAMKLMTALVNVALNLSINMDNTQRQYEAERNKMIGKRANERLELLLQKRKELQENQDEIENMMNAIFKGVFVHRYRDAIAEIRAICIEEIGIWMKMYSDAFLNDSYLKYVGWTMHDKQGEVRLKCLTALQGLYYNKELNSKLELFTSRFKDRIVSMTLDKEYDVAVQAIKLLTLVLQSSEEVLTAEDCENVYHLVYSAHRPVAVAAGEFLYKKLFSRRDPEEDGMMKRRGRQGPNANLVKTLVFFFLESELHEHAAYLVDSMWDCATELLKDWECMNSLLLEEPLSGEEALTDRQESALIEIMLCTIRQAAECHPPVGRGTGKRVLTAKEKKTQLDDRTKITELFAVALPQLLAKYSVDAEKVTNLLQLPQYFDLEIYTTGRLEKHLDALLRQIRNIVEKHTDTDVLEACSKTYHALCNEEFTIFNRVDISRSQLIDELADKFNRLLEDFLQEGEEPDEDDAYQVLSTLKRITAFHNAHDLSKWDLFACNYKLLKTGIENGDMPEQIVIHALQCTHYVILWQLAKITESSSTKEDLLRLKKQMRVFCQICQHYLTNVNTTVKEQAFTILCDILMIFSHQIMSGGRDMLEPLVYTPDSSLQSELLSFILDHVFIEQDDDNNSADGQQEDEASKIEALHKRRNLLAAFCKLIVYTVVEMNTAADIFKQYMKYYNDYGDIIKETMSKTRQIDKIQCAKTLILSLQQLFNEMIQENGYNFDRSSSTFSGIKELARRFALTFGLDQLKTREAIAMLHKDGIEFAFKEPNPQGESHPPLNLAFLDILSEFSSKLLRQDKRTVYVYLEKFMTFQMSLRREDVWLPLMSYRNSLLAGGDDDTMSVISGISSRGSTVRSKKSKPSTGKRKVVEGMQLSLTEESSSSDSMWLSREQTLHTPVMMQTPQLTSTIMREPKRLRPEDSFMSVYPMQTEHHQTPLDYNRRGTSLMEDDEEPIVEDVMMSSEGRIEDLNEGMDFDTMDIDLPPSKNRRERTELKPDFFDPASIMDESVLGVSMF
# B2: Cohesin subunit SA-2 (Homo sapiens), Q8N3U4 (parent)
# chain: B1 chain
# partner: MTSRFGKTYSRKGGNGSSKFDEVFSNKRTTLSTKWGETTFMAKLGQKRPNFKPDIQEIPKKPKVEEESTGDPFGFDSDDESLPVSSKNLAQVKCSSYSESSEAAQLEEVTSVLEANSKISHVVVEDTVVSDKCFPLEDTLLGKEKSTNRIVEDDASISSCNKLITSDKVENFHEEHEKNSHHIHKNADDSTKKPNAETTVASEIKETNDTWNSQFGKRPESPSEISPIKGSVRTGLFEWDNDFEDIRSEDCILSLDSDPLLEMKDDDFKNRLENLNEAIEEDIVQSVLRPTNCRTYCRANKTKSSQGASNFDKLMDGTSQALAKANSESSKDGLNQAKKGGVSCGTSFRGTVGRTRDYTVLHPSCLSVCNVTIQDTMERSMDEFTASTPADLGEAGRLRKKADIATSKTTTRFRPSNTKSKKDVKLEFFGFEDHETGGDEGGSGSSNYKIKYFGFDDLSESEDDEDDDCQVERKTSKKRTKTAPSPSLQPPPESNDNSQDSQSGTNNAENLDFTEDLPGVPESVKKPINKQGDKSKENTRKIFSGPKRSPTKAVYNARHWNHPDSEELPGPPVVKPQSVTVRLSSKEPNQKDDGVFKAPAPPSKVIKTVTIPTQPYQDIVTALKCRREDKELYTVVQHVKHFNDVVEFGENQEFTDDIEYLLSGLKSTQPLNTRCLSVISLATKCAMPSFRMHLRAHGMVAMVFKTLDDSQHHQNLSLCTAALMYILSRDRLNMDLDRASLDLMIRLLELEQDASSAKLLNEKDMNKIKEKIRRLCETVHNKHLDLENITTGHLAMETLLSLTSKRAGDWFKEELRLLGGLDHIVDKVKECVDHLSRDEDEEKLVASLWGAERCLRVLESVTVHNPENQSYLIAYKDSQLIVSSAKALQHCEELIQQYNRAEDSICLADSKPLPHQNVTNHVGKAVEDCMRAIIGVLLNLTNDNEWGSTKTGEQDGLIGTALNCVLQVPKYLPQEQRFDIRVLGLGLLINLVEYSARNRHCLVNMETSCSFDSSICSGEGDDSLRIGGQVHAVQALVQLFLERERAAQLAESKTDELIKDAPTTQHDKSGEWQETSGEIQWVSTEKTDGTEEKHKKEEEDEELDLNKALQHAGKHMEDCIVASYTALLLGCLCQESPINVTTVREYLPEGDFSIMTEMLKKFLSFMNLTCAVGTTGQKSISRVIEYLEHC
# B3: Cohesin subunit SA-2 (Homo sapiens), Q8N3U4 (parent)
# chain: B1 chain
# partner: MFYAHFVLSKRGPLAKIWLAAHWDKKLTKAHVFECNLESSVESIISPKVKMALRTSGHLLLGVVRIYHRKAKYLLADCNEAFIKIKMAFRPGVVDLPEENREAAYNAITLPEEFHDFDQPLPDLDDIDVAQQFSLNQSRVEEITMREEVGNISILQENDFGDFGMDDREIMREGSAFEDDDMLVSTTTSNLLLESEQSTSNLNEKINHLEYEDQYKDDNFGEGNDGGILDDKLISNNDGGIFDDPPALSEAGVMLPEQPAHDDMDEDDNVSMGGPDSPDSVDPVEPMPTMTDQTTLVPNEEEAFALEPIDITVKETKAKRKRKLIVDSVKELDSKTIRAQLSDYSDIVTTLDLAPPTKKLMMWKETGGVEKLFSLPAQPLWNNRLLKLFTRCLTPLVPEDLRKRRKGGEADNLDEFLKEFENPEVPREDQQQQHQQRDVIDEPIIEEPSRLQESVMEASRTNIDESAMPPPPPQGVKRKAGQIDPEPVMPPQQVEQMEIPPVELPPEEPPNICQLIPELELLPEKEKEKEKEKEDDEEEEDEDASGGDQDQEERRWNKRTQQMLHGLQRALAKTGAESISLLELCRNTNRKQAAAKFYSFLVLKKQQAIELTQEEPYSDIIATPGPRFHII
# Variants of: B1
# Details: with sgo1_human SGO1, Q5FBB7
# Chain of sgo1_human SGO1, Q5FBB7 (Q5FBB7 whole entry): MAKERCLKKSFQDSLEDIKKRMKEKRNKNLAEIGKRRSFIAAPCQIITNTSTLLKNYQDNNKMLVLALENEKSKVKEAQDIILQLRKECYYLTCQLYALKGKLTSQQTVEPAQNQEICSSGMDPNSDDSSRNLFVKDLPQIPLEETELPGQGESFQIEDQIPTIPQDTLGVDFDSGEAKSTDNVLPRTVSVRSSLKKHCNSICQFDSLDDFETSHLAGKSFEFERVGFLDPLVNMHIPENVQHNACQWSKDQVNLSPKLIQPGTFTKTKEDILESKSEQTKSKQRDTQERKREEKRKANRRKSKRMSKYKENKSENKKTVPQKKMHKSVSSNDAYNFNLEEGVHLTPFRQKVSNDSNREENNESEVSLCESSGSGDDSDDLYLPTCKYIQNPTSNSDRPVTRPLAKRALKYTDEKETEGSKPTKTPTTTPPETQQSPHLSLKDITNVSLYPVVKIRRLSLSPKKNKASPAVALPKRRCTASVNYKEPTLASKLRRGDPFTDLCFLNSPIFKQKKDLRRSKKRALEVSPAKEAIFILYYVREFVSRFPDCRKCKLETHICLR
row,Variant,effect of a mutation on the interaction
1,S327N,decreasing interaction
2,K330E,disrupting interaction

# Variants of: B2
# Details: with wapl_human WAPL
row,Variant,effect of a mutation on the interaction
1,K330E,decreasing interaction
2,S327N,with no effect

# Variants of: B3
# Details: with rad21_human RAD21, O60216
row,Variant,effect of a mutation on the interaction
1,S327N,with no effect
